{"source": "patent US20150017651A1", "about": "(University of Texas, published 2015)", "binders": {"B1": {"name": "Gli3 (other)", "chain": "MEAQSHSSTTTEKKKVENSIVKCSTRTDVSEKAVASSTTSNEDESPGQTYHRERRNAITMQPQNVQGLSKVSEEPSTSSDERASLIKKEIHGSLPHVAEPSVPYRGTVFAMDPRNGYMEPHYHPPHLFPAFHPPVPIDARHHEGRYHYDPSPIPPLHMTSALSSSPTYPDLPFIRISPHRNPTAASESPFSPPHPYINPYMDYIRSLHSSPSLSMISATRGLSPTDAPHAGVSPAEYYHQMALLTGQRSPYADIIPSAATAGTGAIHMEYLHAMDSTRFSSPRLSARPSRKRTLSISPLSDHSFDLQTMIRTSPNSLVTILNNSRSSSSASGSYGHLSASAISPALSFTYSSAPVSLHMHQQILSRQQSLGSAFGHSPPLIHPAPTFPTQRPIPGIPTVLNPVQVSSGPSESSQNKPTSESAVSSTGDPMHNKRSKIKPDEDLPSPGARGQQEQPEGTTLVKEEGDKDESKQEPEVIYETNCHWEGCAREFDTQEQLVHHINNDHIHGEKKEFVCRWLDCSREQKPFKAQYMLVVHMRRHTGEKPHKCTFEGCTKAYSRLENLKTHLRSHTGEKPYVCEHEGCNKAFSNASDRAKHQNRTHSNEKPYVCKIPGCTKRYTDPSSLRKHVKTVHGPEAHVTKKQRGDIHPRPPPPRDSGSHSQSRSPGRPTQGALGEQQDLSNTTSKREECLQVKTVKAEKPMTSQPSPGGQSSCSSQQSPISNYSNSGLELPLTDGGSIGDLSAIDETPIMDSTISTATTALALQARRNPAGTKWMEHVKLERLKQVNGMFPRLNPILPPKAPAVSPLIGNGTQSNNTCSLGGPMTLLPGRSDLSGVDVTMLNMLNRRDSSASTISSAYLSSRRSSGISPCFSSRRSSEASQAEGRPQNVSVADSYDPISTDASRRSSEASQSDGLPSLLSLTPAQQYRLKAKYAAATGGPPPTPLPNMERMSLKTRLALLGDALEPGVALPPVHAPRRCSDGGAHGYGRRHLQPHDAPGHGVRRASDPVRTGSEGLALPRVPRFSSLSSCNPPAMATSAEKRSLVLQNYTRPEGGQSRNFHSSPCPPSITENVTLESLTMDADANLNDEDFLPDDVVQYLNSQNQAGYEQHFPSALPDDSKVPHGPGDFDAPGLPDSHAGQQFHALEQPCPEGSKTDLPIQWNEVSSGSADLSSSKLKCGPRPAVPQTRAFGFCNGMVVHPQNPLRSGPAGGYQTLGENSNPYGGPEHLMLHNSPGSGTSGNAFHEQPCKAPQYGNCLNRQPVAPGALDGACGAGIQASKLKSTPMQGSGGQLNFGLPVAPNESAGSMVNGMQNQDPVGQGYLAHQLLGDSMQHPGAGRPGQQMLGQISATSHINIYQGPESCLPGAHGMGSQPSSLAVVRGYQPCASFGGSRRQAMPRDSLALQSGQLSDTSQTCRVNGIKMEMKGQPHPLCSNLQNYSGQFYDQTVGFSQQDTKAGSFSISDASCLLQGTSAKNSELLSPGANQVTSTVDSLDSHDLEGVQIDFDAIIDDGDHSSLMSGALSPSIIQNLSHSSSRLTTPRASLPFPALSMSTTNMAIGDMSSLLTSLAEESKFLAVMQ"}, "B2": {"name": "Gli2 (other)", "chain": "METSASATASEKQEAKSGILEAAGFPDPGKKASPLVVAAAAAAAVAAQGVPQHLLPPFHAPLPIDMRHQEGRYHYEPHSVHGVHGPPALSGSPVISDISLIRLSPHPAGPGESPFNAPHPYVNPHMEHYLRSVHSSPTLSMISAARGLSPADVAQEHLKERGLFGLPAPGTTPSDYYHQMTLVAGHPAPYGDLLMQSGGAASAPHLHDYLNPVDVSRFSSPRVTPRLSRKRALSISPLSDASLDLQRMIRTSPNSLVAYINNSRSSSAASGSYGHLSAGALSPAFTFPHPINPVAYQQILSQQRGLGSAFGHTPPLIQPSPTFLAQQPMALTSINATPTQLSSSSNCLSDTNQNKQSSESAVSSTVNPVAIHKRSKVKTEPEGLRPASPLALTQGQVSGHGSCGCALPLSQEQLADLKEDLDRDDCKQEAEVVIYETNCHWEDCTKEYDTQEQLVHHINNEHIHGEKKEFVCRWQACTREQKPFKAQYMLVVHMRRHTGEKPHKCTFEGCSKAYSRLENLKTHLRSHTGEKPYVCEHEGCNKAFSNASDRAKHQNRTHSNEKPYICKIPGCTKRYTDPSSLRKHVKTVHGPDAHVTKKQRNDVHLRTPLLKENGDSEAGTEPGGPESTEASSTSQAVEDCLHVRAIKTESSGLCQSSPGAQSSCSSEPSPLGSAPNNDSGVEMPGTGPGSLGDLTALDDTPPGADTSALAAPSAGGLQLRKHMTTMHRFEQLKKEKLKSLKDSCSWAGPTPHTRNTKLPPLPGSGSILENFSGSGGGGPAGLLPNPRLSELSASEVTMLSQLQERRDSSTSTVSSAYTVSRRSSGISPYFSSRRSSEASPLGAGRPHNASSADSYDPISTDASRRSSEASQCSGGSGLLNLTPAQQYSLRAKYAAATGGPPPTPLPGLERMSLRTRLALLDAPERTLPAGCPRPLGPRRGSDGPTYGHGHAGAAPAFPHEAPGGGARRASDPVRRPDALSLPRVQRFHSTHNVNPGPLPPCADRRGLRLQSHPSTDGGLARGAYSPRPPSISENVAMEAVAAGVDGAGPEADLGLPEDDLVLPDDVVQYIKAHASGALDEGTGQVYPTESTGFSDNPRLPSPGLHGQRRMVAADSNVGPSAPMLGGCQLGFGAPSSLNKNNMPVQWNEVSSGTVDALASQVKPPPFPQGNLAVVQQKPAFGQYPGYSPQGLQASPGGLDSTQPHLQPRSGAPSQGIPRVNYMQQLRQPVAGSQCPGMTTTMSPHACYGQVHPQLSPSTISGALNQFPQSCSNMPAKPGHLGHPQQTEVAPDPTTMGNRHRELGVPDSALAGVPPPHPVQSYPQQSHHLAASMSQEGYHQVPSLLPARQPGFMEPQTGPMGVATAGFGLVQPRPPLEPSPTGRHRGVRAVQQQLAYARATGHAMAAMPSSQETAEAVPKGAMGNMGSVPPQPPPQDAGGAPDHSMLYYYGQIHMYEQDGGLENLGSCQVMRSQPPQPQACQDSIQPQPLPSPGVNQVSSTVDSQLLEAPQIDFDAIMDDGDHSSLFSGALSPSLLHSLSQNSSRLTTPRNSLTLPSIPAGISNMAVGDMSSMLTSLAEESKFLNMMT"}}, "target": "mTOR (human, UniProt P42345 1-2549)", "assay": "IP-Western, BE3 or SKGT4 cells", "data": [{"binder": "B1", "values": [{"measurement": "binding result", "result": "no binding"}]}, {"binder": "B2", "values": [{"measurement": "binding result", "result": "no binding"}]}]}
